Results on 19 molecules are retold here after patent US20090035317A1, “Peptides binding to vascular endothelial growth factor” (priority 2007, published 2009).

One assay concerns biotinylated VEGF. Nature of the assay: First order dissociation rate constants (koff) of cell-surface displayed peptides, flow cytometry. In kind it is binding. As to conditions: peptide displayed on bacterial cell surface; for RT koff: room temperature. The procedure:
(§1) Cells displaying VEGF-binding peptides were first incubated with biotinylated VEGF and allowed to equilibrate at 4° C. After centrifugation, excess VEGF was removed. The cells were then resuspended in buffer, such that the concentration of cells was diluted 1:10, as compared to the VEGF-labeling step. Cells were allowed to incubate in buffer at room temperature or 37° C. for times varying from 5 minutes to 21 hours to allow dissociation of VEGF from the cell surface. After the appropriate amount of time, the cells were placed on ice to stop the dissociation, and streptavidin-phycoerythrin (SAPE) was added for fluorescence labeling. After centrifugation, excess SAPE was removed, and cellular fluorescence was measured by flow cytometry. Fluorescence data as a function of dissociation time was used to determine koff.
For orientation: In flow cytometry, cells or beads pass a laser one at a time.

For assay [1], the system named is VEGF. Nature of the assay: Clone characterization: off-rate from VEGF at room temperature (Example 1). In kind it is binding. The following applies: 10 nM VEGF labeling, FIG. 3, FIG. 4. The procedure: Initial measurements of off-rate were made for each clone in order to narrow down the search for the best binding peptide. Each clone was labeled with 10-nM VEGF. Excess VEGF was washed away, and the protein was allowed to dissociate for 15 and 30 minutes at room temperature. SAPE was added, and secondary labeling was performed on ice. Excel's Regression function was used to calculate koff for each peptide using three time points (0, 15, and 30 minutes) and the standard error for the regression.
Each clone was incubated with 10 nM VEGF and allowed to come to equilibrium. The excess VEGF was washed away, and the cells were separated into 4 aliquots and diluted 1/10 in room temperature PBS. SAPE was added to the appropriate aliquot after 5, 10, 15, and 30 minutes for secondary labeling on ice. The mean fluorescence at these time points was used to determine koff. In most cases, the t=30 minute point could not be incorporated into the regression.
Target sequence in this assay (P15692 207-315 limits assumed): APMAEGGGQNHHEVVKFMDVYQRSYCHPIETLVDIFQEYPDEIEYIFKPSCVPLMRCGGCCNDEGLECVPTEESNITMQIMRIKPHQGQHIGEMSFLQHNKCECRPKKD

The test system of assay [2] is VEGF. Nature of the assay: Specificity: retention of VEGF binding fluorescence in BSA and serum. As to conditions: 10-nM VEGF; serum dilutions; FIG. 5. The procedure:
In addition, measurements of specificity were performed for the four peptides whose off-rate could be calculated. Each clone was incubated with 10-nM VEGF in varying dilutions of BSA and serum followed by secondary labeling with SAPE at the same BSA/serum concentration. It was assumed that a specific peptide would retain more fluorescence upon serum addition than a non-specific peptide. The serum was first prepared by incubation with cells overexpressing the CPXopt template, spinning down the cell pellet and any bacteria-specific proteins bound to them, and removing the supernatant for incubation with the selected clones. Adding BSA up to physiological conditions decreased the mean fluorescence of each clone by an average of ˜40%, seemingly indicating some degree of specificity. […] FIG. 5 gives the fluorescence remaining after serum addition relative to initial fluorescence (at a serum dilution of 1/100), which was taken to be a measure of the specificity of the interaction between the peptide and VEGF. […] Therefore, the change in fluorescence of a gated population of positive binding cells was used to determine the specificity metric. In some cases with undiluted serum, a significant fraction of cells (>˜1%) still fell into this positive, and the fluorescence of this small fraction of cells was used to calculate the specificity. […]
Target sequence in this assay (P15692 207-320 limits assumed): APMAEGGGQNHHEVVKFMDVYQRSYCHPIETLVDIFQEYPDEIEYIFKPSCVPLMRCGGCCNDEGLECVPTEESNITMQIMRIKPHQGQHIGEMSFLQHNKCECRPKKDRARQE

In assay [3] the test system is VEGF. Nature of the assay: Equilibrium binding of displayed clones with VEGF at 1 nM and 10 nM. The following applies: displayed on cell surface.
Target sequence in this assay (P15692 207-320 limits assumed): as above
Assay [4] has as its system biotinylated recombinant murine VEGF (rmVEGF). Nature of the assay: Murine cross-reactivity, flow cytometry. In kind it is binding. The following applies: rmVEGF at 25 and 250 nM. The procedure: Cells expressing VEGF-binding peptides were incubated with biotinylated recombinant murine VEGF (rmVEGF). Fluorescence labeling was performed with SAPE as previously described. The first seven clones listed in Table 5 as well as v114 were assayed for cross-reactivity with rmVEGF. All of the ligands analyzed bound rmVEGF at concentrations of 25 and 250 nM, as measured by flow cytometry.

For assay [5], the target named is T1, VEGF (Homo sapiens, UniProt P15692).
T1 sequence (P15692 214-315 limits assumed): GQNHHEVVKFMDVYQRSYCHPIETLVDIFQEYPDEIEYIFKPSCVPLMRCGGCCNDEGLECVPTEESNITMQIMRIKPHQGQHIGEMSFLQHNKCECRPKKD
As to conditions: Fairbrother et al. (1998); read-out: reported equilibrium dissociation constant (KD); cited from earlier work.

The target in assay [6] is T2, vascular endothelial growth factor (VEGF) (UniProt P15692-4 27-191, limits assumed, biotinylated).
T2 construct: Soluble biotinylated VEGF used to label cells that display the peptides; also called biotinylated VEGF
Nature of the assay: apparent equilibrium KD measured from the bacterial cell surface, flow cytometry.

The target of assay [7] is T2, vascular endothelial growth factor …. Nature of the assay: flow cytometry, peptide displayed on bacterial cell surface, dissociation of biotinylated VEGF at 37° C. The procedure:
as §1

For assay [8] the target is unchanged. Nature of the assay: flow cytometry, peptide displayed on bacterial cell surface, dissociation of biotinylated VEGF at room temperature. The procedure: as §1
The target is the same in assay [9]. Nature of the assay: comparison of room temperature koff values of Table 5, flow cytometry on displayed peptides. The procedure: as §1
Assay [10] shares this target. Nature of the assay: flow cytometry competition; soluble v114 premixed with biotinylated VEGF; competitor: displayed L3.F5A.01, compared with displayed L2.F4.04. The procedure: Biotinylated VEGF was first mixed with various concentrations of soluble v114 peptide (Anaspec); the ratio of soluble peptide to VEGF ranged from ˜2:1 to 5000:1. Cells expressing VEGF binding peptides were then incubated with this VEGF/peptide mixture and allowed to equilibrate at 4° C. After centrifugation, unbound protein/peptide was removed, and the cells were resuspended in SAPE for fluorescence labeling.

Assay [11] has the same target. Nature of the assay: comparison of 37° C. koff values of Table 5, flow cytometry on displayed peptides. The procedure:
as §1

Bridge positions count the residues as written; N and C are the ends. Ends that are not written are not given here.

T2 sequence (P15692 other isoform, or with tags, fused parts or gaps limits assumed): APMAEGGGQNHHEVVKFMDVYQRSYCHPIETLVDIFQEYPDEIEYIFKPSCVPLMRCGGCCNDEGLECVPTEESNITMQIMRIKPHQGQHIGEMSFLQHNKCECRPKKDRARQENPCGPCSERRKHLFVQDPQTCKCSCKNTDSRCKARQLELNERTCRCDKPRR
Chain of biotinylated VEGF (P15692 207-320 limits assumed): as the sequence (P15692 207-320 limits assumed) above
Chain of biotinylated recombinant murine VEGF (rmVEGF) (Q00731 205-317 limits assumed): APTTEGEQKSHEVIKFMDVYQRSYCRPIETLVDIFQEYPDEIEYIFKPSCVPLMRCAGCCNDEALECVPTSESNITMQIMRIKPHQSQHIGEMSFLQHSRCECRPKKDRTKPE

As for “AKRSSYSMWGAMPGGGSGGGNFGYGKWEWDYGKWLEKV [Clone L3.F5A.03, AKRSSYSMWGAMP-GGGSGGG-NFGYGKWEWDYGKWLEKV]”, in the assay on biotinylated VEGF, the “37° C. koff” value was 0.0006 s⁻¹ and the RT koff was found to be 4.28e-05 s⁻¹.

In the case of CPVQTMWDWECMRAFIEG [Clone L2.F3B.08], in the assay with biotinylated VEGF, the “37° C. koff” value was 0.0042 s⁻¹ and the RT koff came to 0.0072 s⁻¹. Also, in the assay with VEGF [1], the “dissociation rate (in words)” value is listed as “good dissociation kinetics”. Moreover, in the assay with VEGF [2], the “effect of serum addition on VEGF binding fluorescence” value is on record as “loses more fluorescence upon serum addition than does L2.F4.04”. In addition, in the assay on VEGF [3], the “fluorescence labeling when bound to VEGF” value is listed as “bright fluorescence signals”.

Turning to “GPGWWLWDWDNLGARRGGL (VEGF-binding peptide) [Clone L2.F3A.10]”, the “fluorescence labeling when bound to VEGF” value in the assay on VEGF [3] is given as “better labeling”.

For “HQQLQYWDWIEAVVHNG (VEGF-binding peptide) [Clone L2.F3A.05]”, the “dissociation rate (in words)” value in the assay on VEGF [1] is given as “slow dissociation rates”.

NFGYGKWEWDYGKWLEKVG [Clone L2.F4.04]: in the assay on biotinylated VEGF, the “37° C. koff” value stood at 0.0013 s⁻¹ and the RT koff was 0.0013 s⁻¹. For the same molecule, the “dissociation rate (in words)” value in the assay on VEGF [1] is “slow dissociation rates”. For the same molecule, the “fluorescence labeling when bound to VEGF” value in the assay with VEGF [3] is given as “bright fluorescence signals”.

Turning to “SKLKTLLWQQGGGSGGGNFGYGKWEWDYGKWLEKV [Clone L3.F6.02, SKLKTLLWQQ-GGGSGGG-NFGYGKWEWDYGKWLEKV]”, in the assay with biotinylated VEGF, the “37° C. koff” value is 0.0014 s⁻¹ and the RT koff stood at 0.000291 s⁻¹.

Take “SSKCGRWGETPCLAEGGGSGGGNFGYGKWEWDYGKWLEKVG [Clone L3.F5A.01, SSKCGRWGETPCLAE-GGGSGGG-NFGYGKWEWDYGKWLEKVG]”: in the assay with biotinylated VEGF, the “37° C. koff” value was 0.00012 s⁻¹ and the RT koff was determined as 2e-05 s⁻¹.

Consider “SYVLKEWSVPSWGKPGGGSGGGNFGYGKWEWDYGKWLEKV [Clone L3.F6.01, SYVLKEWSVPSWGKP-GGGSGGG-NFGYGKWEWDYGKWLEKV]”, for which, in the assay on biotinylated VEGF, the “37° C. koff” value worked out at 0.00025 s⁻¹ and the RT koff worked out at 0.00011 s⁻¹.

With “VEPNCDIHVMWEWECFERL [v114, soluble peptide from Anaspec; positive control]”, in assay [4], the “binding of rmVEGF” value is reported as “bound rmVEGF”. In addition, the Kd at VEGF [5] is 110 nM.

Turning to “VTSRYEMREDGSWKKGGGSGGGNFGYGKWEWDYGKWLEKVG [Clone L3.F5A.02, VTSRYEMREDGSWKK-GGGSGGG-NFGYGKWEWDYGKWLEKVG]”, the “37° C. koff” value in the assay on biotinylated VEGF stood at 0.00074 s⁻¹.

In the case of “WKELRFWDWEGGNHKKCVT (VEGF-binding peptide) [Clone L2.F3B.12]”, the “dissociation rate (in words)” value with VEGF [1] is given as “slow dissociation rates”.

B1: L2.F3B.08 (peptide)
peptide: CPVQTMWDWECMRAFIEG
modifications: disulfide 1-11 (inferred)
notes: not shown: CPXopt bacterial display scaffold (carrier)
One may read the koff as the first-order rate constant of dissociation. Read a low koff as slow dissociation. In the case of B1, the Kd in assay [6] was determined as 17.8 nM. The koff was determined as 0.0042 s⁻¹ in [7] and 0.0072 s⁻¹ in assay [8].

B2: L3.F6.01 (peptide)
peptide: SYVLKEWSVPSWGKPGGGSGGGNFGYGKWEWDYGKWLEKV
modifications: Displayed on the E. coli surface as a fusion to CPXopt; the letters do not carry the scaffold.
notes: Peptide 2 is printed without the final G of L2.F4.04; not shown: CPXopt bacterial display scaffold that carried the peptide on the cell surface
With B2, the Kd in assay [6] was found to be 3.5 nM. Further, the koff in [7] came out at 0.00025 s⁻¹; in [8] it was 0.00011 s⁻¹.

B3: L3.F6.02 (peptide)
peptide: SKLKTLLWQQGGGSGGGNFGYGKWEWDYGKWLEKV
modifications: Displayed on the E. coli surface as a fusion to CPXopt; the letters do not carry the scaffold.
notes: as for B2
In the case of B3, the Kd in [6] stood at 5 nM. In addition, the “fold improvement (slower dissociation) against the monodendate parent peptide L2.F4.04” value in assay [9] lay within 4 to 65 fold. Besides, the koff in [7] was found to be 0.0014 s⁻¹; in assay [8], 0.000291 s⁻¹.

B4: L3.F5A.03 (peptide)
peptide: AKRSSYSMWGAMPGGGSGGGNFGYGKWEWDYGKWLEKV
modifications: Displayed on the E. coli surface as a fusion to CPXopt; the letters do not carry the scaffold.
notes: as for B2
As for B4, the Kd in assay [6] amounted to 3.7 nM. In addition, the koff in assay [7] was determined as 0.0006 s⁻¹; in [8] it was 4.28e-05 s⁻¹.

B5: soluble v114 peptide (Anaspec) (peptide)
peptide: VEPNCDIHVMWEWECFERL
notes: also called Genentech v114 peptide
Consider B5, for which the “fold increase in the concentration of v114 required to block 50% of VEGF binding, bidentate peptide against parent peptide” value in [10] is ≥ 5 fold.

B6: L3.F5A.02 (peptide)
peptide: VTSRYEMREDGSWKKGGGSGGGNFGYGKWEWDYGKWLEKVG
notes: as for B1
Regarding B6, the Kd in assay [6] came to 2.6 nM. The molecule further came in with a koff in [7] of 0.00074 s⁻¹.

B7: L3.F5A.01 (peptide)
peptide: SSKCGRWGETPCLAEGGGSGGGNFGYGKWEWDYGKWLEKVG
notes: also called bidentate peptide L3.F5A.01; not shown: CPXopt bacterial display scaffold (carrier)
Consider B7, for which the entries for the “fold improvement (slower dissociation) against the monodendate parent peptide L2.F4.04” value in [11] and in assay [9] were ≤ 12 fold and 4 to 65 fold, respectively. For the same molecule, in assay [6], the Kd turned out to be 2.1 nM. Further, the results for the dissociation rate constant (koff) in [7] and in assay [8] were 0.00012 s⁻¹ and 2e-05 s⁻¹, respectively.

B8: L2.F4.04 (peptide)
peptide: NFGYGKWEWDYGKWLEKVG
notes: as for B1
As for B8, the Kd in assay [6] is 6.1 nM. For the same molecule, the koff in [7] and in [8] was 0.0013 s⁻¹ in each case.
